Experimental data from the supplement of paper PMC9170038.

Experiments:
MS2 coat protein [1] = assay: apparent KD of MS2 coat protein, switch ON state; designed switch direction (-1 OFF switch, 1 ON switch): -1; higher = weaker reporter binding; conditions: FMN input: 0 or 200 uM; Eterna round: R93 (includes R88 designs)
Procedure, shortened: (§1)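 Designed RNA switches were transcribed on-chip from Illumina sequencing clusters. They were then titrated with SNAP-549-labelled MS2 coat protein (twofold steps, 0.7 or 1.5 nM to 3 µM; 0.8–1.5 h to 10–20 min per step) in 100 mM Tris-HCl pH 7.5, 80 mM KCl, 4 mM MgCl2, without or with constant ligand. Apparent KD is the per-design median of normalised cluster binding-curve fits.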

MS2 coat protein [2] = assay: apparent KD of MS2 coat protein, switch OFF state (with FMN for OFF switches, without FMN for ON switches); designed switch direction (-1 OFF switch, 1 ON switch): -1; higher = weaker reporter binding; conditions: FMN input: 0 or 200 uM; Eterna round: R93 (includes R88 designs)
Procedure, shortened: as §1

“CUUAAACAUGAGGAUCACCCAUGUGAGGAUAUGAUGCGAAUAAAGAAAGAAGAAAGCAUCAGAAGGCACAUAUG” was tested, and the “apparent KD of MS2 coat protein” value (MS2 coat protein [1]) was 27.7 nM and the “apparent KD of MS2 coat protein” value (MS2 coat protein [2]) was 129 nM.

With “CUUAUGUGAGGAUAUGUACAGAAAAAAAAGGGUGUAACUGUACAGAAGGCACAUGAGGAUCACCCAUGUGAAUA [EX4 380: S S Pseudoknot 5]” the “apparent KD of MS2 coat protein” value (MS2 coat protein [1]) was 61.9 nM and the “apparent KD of MS2 coat protein” value (MS2 coat protein [2]) was 25.1 nM.

For “CUUAUGUGAGGAUAUGUACAGAAAAAACUGGGUGUAACUGUACAGAAGGCACAUGAGGAUCACCCAUGUGCAAA [EX4 388: S S Pseudoknot 13]”, the “apparent KD of MS2 coat protein” value (MS2 coat protein [1]) was 70.2 nM and the “apparent KD of MS2 coat protein” value (MS2 coat protein [2]) was 56.8 nM.

“GAAAACAGAGGAUAUACAAAAUUAUGACGAAAGUCAUAAAAACAUGAGGAUCACCCAUGUAGAAGGCUGAAGAA [Meechl MS2 Ex2]” was tested, and the “apparent KD of MS2 coat protein” value (MS2 coat protein [1]) was 28.2 nM and the “apparent KD of MS2 coat protein” value (MS2 coat protein [2]) was 21.6 nM.

With “GAAAAGGCAGGAUAUACAGGAUAUAGAAGGAGGAUAUAGAGACAUGAGGAUCACCCAUGUAGAAGGGCCAAAAG [Diamond 80]” the “apparent KD of MS2 coat protein” value (MS2 coat protein [1]) was 48.3 nM and the “apparent KD of MS2 coat protein” value (MS2 coat protein [2]) was 113 nM.

“GAAAAGUGAGGAUAUGCGAAGGCGUCUGAUAGACGAGGCUAGCAGAAGGCACAUGAGGAUCACCCAUGUGGGAA [Mat - Exclusion 4 - Eli mod - D91]” was tested, and the “apparent KD of MS2 coat protein” value (MS2 coat protein [1]) was 71.6 nM and the “apparent KD of MS2 coat protein” value (MS2 coat protein [2]) was 133 nM.

With “GAAAAGUGAGGAUAUUCGGAUAGGAAAACGAAAACCUAUCCGAAGAAGGCACAUGAGGAUCACCCAUGUGGAAG [Mat - Exaclusion 4 - Eli mod - D46]” the “apparent KD of MS2 coat protein” value (MS2 coat protein [1]) was 26.1 nM and the “apparent KD of MS2 coat protein” value (MS2 coat protein [2]) was 30.7 nM.

“GAAAAUGGAGGAUAUACAUGAGGAUCACCCAUGUGUAUAAAAAAAUACACAAAAGAAAGUAGAAGGCCAUAAAG [Mat - Exclusion 3 - Mayanna mod - D101]” was tested, and the “apparent KD of MS2 coat protein” value (MS2 coat protein [1]) was 31.4 nM and the “apparent KD of MS2 coat protein” value (MS2 coat protein [2]) was 114 nM.

With “GAAAGGGCAGGAUAUGCAGAGAGAGAGAGAGAGAGAGAGAAACAUGAGGAUCACCCAUGUAGAAGGGCCGAAAG [salish99-ex2-07]” the “apparent KD of MS2 coat protein” value (MS2 coat protein [1]) was 30.9 nM and the “apparent KD of MS2 coat protein” value (MS2 coat protein [2]) was 29.2 nM.

In the case of “GAAAUACAUGAGGAUCACCCAUGUGAGGAUAUGCUAUGGAAAUAAAAAAUAAAACAUAGCAGAAGGUACAAAAG [Mat - Exclusion 1 - Eli mod - D43]”, the “apparent KD of MS2 coat protein” value (MS2 coat protein [1]) is reported as 21.8 nM and the “apparent KD of MS2 coat protein” value (MS2 coat protein [2]) is reported as 54.6 nM.

With “GAAGAACAUGAGGAUCACCCAUGUCAGGAUAUACAGAAGGGAAUAAAAUAACCUGAAAGUAGAAGGGACAAGAA [Ex 1 May 42]” the “apparent KD of MS2 coat protein” value (MS2 coat protein [1]) was 29 nM and the “apparent KD of MS2 coat protein” value (MS2 coat protein [2]) was 57.2 nM.

With “GAAGUGUUAGGAUAUCGAUGAAUAAUAAAACAAAGGAACAUUGAGAAGGAACAUGAGGAUCACCCAUGUAUAAC [May 81]” the “apparent KD of MS2 coat protein” value (MS2 coat protein [1]) was 27.7 nM and the “apparent KD of MS2 coat protein” value (MS2 coat protein [2]) was 25.2 nM.

For “GAGAAGUGAGGAUAUCGAAGACAGACGAAAAGUCUGUCAAACGAGAAGGCACAUGAGGAUCACCCAUGUGGGAA [Mat - Exaclusion 4 - Eli mod - D76]”, the “apparent KD of MS2 coat protein” value (MS2 coat protein [1]) was 75.8 nM and the “apparent KD of MS2 coat protein” value (MS2 coat protein [2]) was 140 nM.

For “GAGAAGUGAGGAUAUCGAAGACAGACGAAAAGUCUGUCAAACGAGAAGGCACAUGAGGAUCACCCAUGUGGGAG [Mat - Exaclusion 4 - Eli mod - D75]”, the “apparent KD of MS2 coat protein” value (MS2 coat protein [1]) was 81.2 nM and the “apparent KD of MS2 coat protein” value (MS2 coat protein [2]) was 302 nM.

With “GAGGUAUGAGGAUAUACAUAGAUACAGACACAUGUUCAAGUACAUGAGGAUCACCCAUGUAGAAGGCAUAUAUC [Mat - Same state - Mayanna Mod - D105]” the “apparent KD of MS2 coat protein” value (MS2 coat protein [1]) was 22 nM and the “apparent KD of MS2 coat protein” value (MS2 coat protein [2]) was 37.2 nM.

In the case of “GCUGUGCAAGGAUAUACAUGAGGAUCACCCAUGUGAGAGAAAAAAGUGAGAAAGAAAAGUAGAAGGUGCGUAGG [salish99-ex3-99]”, the “apparent KD of MS2 coat protein” value (MS2 coat protein [1]) is reported as 36.5 nM and the “apparent KD of MS2 coat protein” value (MS2 coat protein [2]) is reported as 43.3 nM.

With “GCUUGGCAAGGAUAUACAUGAGGAUCACCCAUGUGAGAGAAAAAAGUGAGAAAGAAAAGUAGAAGGUGUUGAGG [salish99-ex3-76]” the “apparent KD of MS2 coat protein” value (MS2 coat protein [1]) was 44.4 nM and the “apparent KD of MS2 coat protein” value (MS2 coat protein [2]) was 48.9 nM.
